According to publication PMC11150925:

B1: rCsGST-σ3 (Clonorchis sinensis) (protein)
chain: MSGEKYKLYYFPFRARGEVIRMVLHAAGVPFDDERIPMDDWPKRKSEIPGGRMPVLQVIDPDKPDTPKNFVEGMAIARMLAKRFDLMDDTEEGYYNTERMIGECEDVFKEFRSVFLSPADKKEELLKEAMETSIPKQLDLISKSLSESAGKFVAGCKVTLGDLCLLACLDHVDKSDPEFLKDKYPKLLEWREEVLKEKPKLADYIKSRPDTPF
B2: rCsGST-μ1 (Clonorchis sinensis) (protein)
chain: MAPVLGYWKIRGLAQPIRLLLEYVGDSYEEHSYGRCDGEKWQNDKHNLGLELPNLPYYKDGNFSLTQSLAILRYIADKHNMIGNTPVERAKISMIEGGLVDLRAGVSRIAYQETFVCIVSTFCLSHTSQEQLKVPYLQQLPSTLRMWSQFLGNNSYLHGSTPTHLDFMFYEALDVIRYLDPTSVEAFPNLMQFIHRIEALPNIKAFMESDRFIKWPLNGWSAYFGGGDAPPK
B3: rCsPGDS1 (Clonorchis sinensis) (protein)
chain: MSQYKLTYFNLRGRAEPIRMVLIISGTPFEDCRIEVSDWPSKKSTIPGGKLPILEVTSPCGKKTLMTESMATARYLAKQHNLMGATDEDYYKIEKTIGECGDLHDLVYKIARAPDAEKPKLIEELKKLENAPRLLNLMSETLKSNPSGFVAGEKVSLGDIALLCTLDQFESVYPGFLKENYPIFANHREHIMELQPKLAEHIKTRPTTIV
B4: rCsGST-σ1 (Clonorchis sinensis) (protein)
chain: MADEHYTLFYFQFRGRAEAIRMILHANGVHFKDERFTMNEWPERRNQIPGSRVPLLQVKKNKTHEVANYVESMAIARMLAKRFHMMGDSEEEYYRVERMIGQCADLDKEFYTAFFAAADQKEEMLKKSMREAVPKMLDLISKSISESGGKFAAGDKVTLGDICLLTSMDHVRKHDPEFLGKHYPKLLVLEQEVLKAKPKLAEYIRTRPETPL

Substrate: [H][C@]12C[C@]([H])(OO1)[C@H](C/C=C\CCCC(=O)O)[C@H]2/C=C/[C@@H](O)CCCCC
Assay: purified protein
Conditions: PGD2 synthase reaction; 2 mM GSH fixed (saturating); PGH2 0.08-40 μM

Protein | Km [µM] | kcat [s⁻¹] | kcat/Km [M⁻¹ s⁻¹]
B1 | 30.2 | 90.7 | 3e+06
B2 | 4.9 | 12.5 | 2.6e+06
B3 | 21.0 | 90.6 | 4.3e+06
B4 | 92.1 | 451 | 4.9e+06
